{"source": "paper PMC12816604", "about": "“Structural basis of double-stranded RNA recognition by the J2 monoclonal antibody”", "molecules": {"B1": {"name": "30-bp dsRNA 0% GC (dsRNA)", "RNA 1": "AUUAUAAAUAAUUUAAAUAUUAUAUUAAAU", "RNA 2": "AUUUAAUAUAAUAUUUAAAUUAUUUAUAAU"}, "B2": {"name": "14-bp dsRNA (dsRNA)", "RNA 1": "GUUGUAAAGAAGGU", "RNA 2": "ACCUUCUUUACAAC"}, "B3": {"name": "40-bp AU-dinucleotide dsRNA (dsRNA)", "RNA 1": "AUAUAUAUAUAUAUAUAUAUAUAUAUAUAUAUAUAUAUAU", "RNA 2": "B3 RNA 1"}, "B4": {"name": "30-bp dsRNA 17% GC (dsRNA)", "RNA 1": "GUUGUAAAUAAGUUCAAUAUUAUACUAAAU", "RNA 2": "AUUUAGUAUAAUAUUGAACUUAUUUACAAC"}, "B5": {"name": "40-bp dsRNA (dsRNA)", "RNA 1": "GUUGUAAAGAAGGUCAAUAUUGUACCAAACUUGAUGGAAA", "RNA 2": "UUUCCAUCAAGUUUGGUACAAUAUUGACCUUCUUUACAAC"}, "B6": {"name": "30-bp dsRNA 47% GC (dsRNA)", "RNA 1": "GUUGUCCAGAAGGUCAAUAGCGUACCAAAC", "RNA 2": "GUUUGGUACGCUAUUGACCUUCUGGACAAC"}, "B7": {"name": "30-bp dsRNA 3% GC (dsRNA)", "RNA 1": "B1 RNA 1 with A15C", "RNA 2": "B1 RNA 2 with U16G"}, "B8": {"name": "50-bp dsRNA (dsRNA)", "RNA 1": "GUUGUAAAGAAGGUCAAUAUUGUACCAAACUUGAUGGAAAAGAACAACGU", "RNA 2": "ACGUUGUUCUUUUCCAUCAAGUUUGGUACAAUAUUGACCUUCUUUACAAC"}, "B9": {"name": "6-bp dsRNA (dsRNA)", "RNA 1": "GUUGUA", "RNA 2": "UACAAC"}}, "key": {"[1]": {"tested_on": "J2 IgG HC A30P, PDB:9OJV_1+PDB:9OJV_2", "assay": "BLI steady state", "details": "100 mM KCl; kinetic Kd 28 ± 14 nM; BLI: 25 mM Tris-HCl pH 7.5, 100-400 mM KCl (per row), 2 mM MgCl2, 25 C, IgG immobilized on Protein A; FP: 25 mM Tris-HCl pH 7.5, 100 mM KCl, 2 mM MgCl2, 21 C"}, "[2]": {"tested_on": "J2 IgG HC Y54F, PDB:9OJV_1+PDB:9OJV_2", "assay": "BLI steady state", "details": "100 mM KCl; kinetic Kd 250 ± 40 nM; BLI: 25 mM Tris-HCl pH 7.5, 100-400 mM KCl (per row), 2 mM MgCl2, 25 C, IgG immobilized on Protein A; FP: 25 mM Tris-HCl pH 7.5, 100 mM KCl, 2 mM MgCl2, 21 C"}, "[3]": {"tested_on": "J2 IgG LC Y31A, PDB:9OJV_1+PDB:9OJV_2", "assay": "BLI steady state", "details": "100 mM KCl; kinetic Kd 207 ± 21 nM; BLI: 25 mM Tris-HCl pH 7.5, 100-400 mM KCl (per row), 2 mM MgCl2, 25 C, IgG immobilized on Protein A; FP: 25 mM Tris-HCl pH 7.5, 100 mM KCl, 2 mM MgCl2, 21 C"}, "[4]": {"tested_on": "J2 IgG HC Y52F, PDB:9OJV_1+PDB:9OJV_2", "assay": "BLI steady state", "details": "100 mM KCl; kinetic Kd 210 ± 20 nM; BLI: 25 mM Tris-HCl pH 7.5, 100-400 mM KCl (per row), 2 mM MgCl2, 25 C, IgG immobilized on Protein A; FP: 25 mM Tris-HCl pH 7.5, 100 mM KCl, 2 mM MgCl2, 21 C"}, "[5]": {"tested_on": "J2 IgG LC Y31F, PDB:9OJV_1+PDB:9OJV_2", "assay": "BLI steady state", "details": "100 mM KCl; kinetic Kd 130 ± 20 nM; BLI: 25 mM Tris-HCl pH 7.5, 100-400 mM KCl (per row), 2 mM MgCl2, 25 C, IgG immobilized on Protein A; FP: 25 mM Tris-HCl pH 7.5, 100 mM KCl, 2 mM MgCl2, 21 C"}, "[6]": {"tested_on": "J2 IgG HC Y54A, PDB:9OJV_1+PDB:9OJV_2", "assay": "BLI steady state", "details": "100 mM KCl; kinetic Kd 270 ± 10 nM; BLI: 25 mM Tris-HCl pH 7.5, 100-400 mM KCl (per row), 2 mM MgCl2, 25 C, IgG immobilized on Protein A; FP: 25 mM Tris-HCl pH 7.5, 100 mM KCl, 2 mM MgCl2, 21 C"}, "[7]": {"tested_on": "J2 IgG LC Y38F, PDB:9OJV_1+PDB:9OJV_2", "assay": "BLI steady state", "details": "100 mM KCl; kinetic Kd 83 ± 14 nM; BLI: 25 mM Tris-HCl pH 7.5, 100-400 mM KCl (per row), 2 mM MgCl2, 25 C, IgG immobilized on Protein A; FP: 25 mM Tris-HCl pH 7.5, 100 mM KCl, 2 mM MgCl2, 21 C"}, "[8]": {"tested_on": "J2 IgG WT, PDB:9OJV_1+PDB:9OJV_2", "assay": "BLI steady state", "details": "BLI: 25 mM Tris-HCl pH 7.5, 100-400 mM KCl (per row), 2 mM MgCl2, 25 C, IgG immobilized on Protein A, FP: 25 mM Tris-HCl pH 7.5, 100 mM KCl, 2 mM MgCl2, 21 C"}, "[9]": {"tested_on": "J2 IgG HC Y50F, PDB:9OJV_1+PDB:9OJV_2", "assay": "BLI steady state", "details": "100 mM KCl; kinetic Kd 94 ± 49 nM; BLI: 25 mM Tris-HCl pH 7.5, 100-400 mM KCl (per row), 2 mM MgCl2, 25 C, IgG immobilized on Protein A; FP: 25 mM Tris-HCl pH 7.5, 100 mM KCl, 2 mM MgCl2, 21 C"}, "[10]": {"tested_on": "J2 IgG WT, PDB:9OJV_1+PDB:9OJV_2", "assay": "FP", "details": "BLI: 25 mM Tris-HCl pH 7.5, 100-400 mM KCl (per row), 2 mM MgCl2, 25 C, IgG immobilized on Protein A; FP: 25 mM Tris-HCl pH 7.5, 100 mM KCl, 2 mM MgCl2, 21 C"}, "[11]": {"tested_on": "J2 IgG WT, PDB:9OJV_1+PDB:9OJV_2", "assay": "FP competition", "details": "vs 3'-FAM VA-I RNA; BLI: 25 mM Tris-HCl pH 7.5, 100-400 mM KCl (per row), 2 mM MgCl2, 25 C, IgG immobilized on Protein A; FP: 25 mM Tris-HCl pH 7.5, 100 mM KCl, 2 mM MgCl2, 21 C"}, "[12]": {"target": "T1, J2 IgG heavy chain (HC-TEV-His8);J2 IgG light chain (Mus musculus;Mus musculus, UniProt ; ;, |)", "T1 sequence (chain, as listed by the source |, chain 1 of 2)": "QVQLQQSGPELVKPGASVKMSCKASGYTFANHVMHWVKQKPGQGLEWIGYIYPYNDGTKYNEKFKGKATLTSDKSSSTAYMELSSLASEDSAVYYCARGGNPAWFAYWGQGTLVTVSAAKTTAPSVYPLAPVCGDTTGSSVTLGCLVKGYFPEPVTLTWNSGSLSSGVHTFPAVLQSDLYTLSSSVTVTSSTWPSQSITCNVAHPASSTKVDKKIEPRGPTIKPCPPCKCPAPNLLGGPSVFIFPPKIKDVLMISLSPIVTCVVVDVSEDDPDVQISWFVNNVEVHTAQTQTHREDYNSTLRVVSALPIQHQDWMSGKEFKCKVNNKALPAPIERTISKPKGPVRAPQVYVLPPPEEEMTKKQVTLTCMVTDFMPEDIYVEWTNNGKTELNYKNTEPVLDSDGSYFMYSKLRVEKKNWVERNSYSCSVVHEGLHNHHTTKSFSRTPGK", "T1 sequence (chain, as listed by the source |, chain 2 of 2)": "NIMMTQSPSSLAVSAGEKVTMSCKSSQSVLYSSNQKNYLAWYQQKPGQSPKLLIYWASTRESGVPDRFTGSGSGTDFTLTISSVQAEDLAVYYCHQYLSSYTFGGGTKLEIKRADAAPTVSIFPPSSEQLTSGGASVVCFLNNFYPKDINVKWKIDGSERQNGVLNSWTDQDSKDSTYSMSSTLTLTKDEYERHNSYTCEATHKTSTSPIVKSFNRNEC", "assay": "BLI; 200 mM KCl; BLI: 25 mM Tris-HCl pH 7.5, 2 mM MgCl2, KCl 100 mM (6-20 bp and mutants), 200 mM (30 bp) or 400 mM (40, 50 bp), 25 C; IgG immobilised on Protein A probes", "details": "protein: recombinant;recombinant, tags: His8 (C-term);, chain copies: 2;2"}, "[13]": {"target": "T1, J2 IgG heavy chain (HC-TEV-His8);J2 IgG …", "assay": "BLI; 100 mM KCl; BLI: 25 mM Tris-HCl pH 7.5, 2 mM MgCl2, KCl 100 mM (6-20 bp and mutants), 200 mM (30 bp) or 400 mM (40, 50 bp), 25 C; IgG immobilised on Protein A probes", "details": "protein: recombinant;recombinant; tags: His8 (C-term);; chain copies: 2;2; blunt"}, "[14]": {"target": "T1, J2 IgG heavy chain (HC-TEV-His8);J2 IgG …", "assay": "BLI; 400 mM KCl; BLI: 25 mM Tris-HCl pH 7.5, 2 mM MgCl2, KCl 100 mM (6-20 bp and mutants), 200 mM (30 bp) or 400 mM (40, 50 bp), 25 C; IgG immobilised on Protein A probes", "details": "protein: recombinant;recombinant, tags: His8 (C-term);, chain copies: 2;2"}}, "note": "Positions count from the first letter of the chain named."}
{"molecule": "GUUGUAAAGAAAUAUAGGCU / AGCCUAUAUUUCUUUACAAC [20-bp dsRNA]", "values": [{"measurement": "Kd", "setting": "[1]", "result": 120, "unit": "nM"}, {"measurement": "Kd", "setting": "[2]", "result": 710, "unit": "nM"}, {"measurement": "Kd", "setting": "[3]", "result": 940, "unit": "nM"}, {"measurement": "Kd", "setting": "[4]", "result": 220, "unit": "nM"}, {"measurement": "Kd", "setting": "[5]", "result": 360, "unit": "nM"}, {"measurement": "Kd", "setting": "[6]", "result": 300, "unit": "nM"}, {"measurement": "Kd", "setting": "[7]", "result": 150, "unit": "nM"}, {"measurement": "Kd", "setting": "[8]; 100 mM KCl, kinetic Kd 150 ± 80 nM", "result": 120, "unit": "nM"}, {"measurement": "Kd", "setting": "[9]", "result": 430, "unit": "nM"}]}
{"molecule": "GUUGUAAAGAAAUAUAACAGGCUUGUACCAUUGAUGGAAA / UUUCCAUCAAUGGUACAAGCCUGUUAUAUUUCUUUACAAC [40-bp dsRNA]", "values": [{"measurement": "Kd", "setting": "[8]; 400 mM KCl, kinetic Kd 33 ± 6 nM", "result": 80, "unit": "nM"}]}
{"molecule": "GUUGUAAAGAAAUAUAACAGGCUUGUACCA / UGGUACAAGCCUGUUAUAUUUCUUUACAAC [30-bp dsRNA]", "values": [{"measurement": "Kd", "setting": "[8]; 200 mM KCl, kinetic Kd 37 ± 7 nM", "result": 47, "unit": "nM"}]}
{"molecule": "3'-FAM Adenovirus VA-I RNA", "values": [{"measurement": "Kd", "setting": "[10]", "result": 32, "unit": "nM"}]}
{"molecule": "GUUGUAAAGAAGGU / ACCUUCUUUACAAC [14-bp dsRNA]", "values": [{"measurement": "Kd", "setting": "[8]; 100 mM KCl, kinetic Kd 1400 ± 800 nM", "result": 2100, "unit": "nM"}]}
{"molecule": "GUUGUAAAGAAAUAUAACAGGCUUGUACCAUUGAUGGAAAAGAACAACGU / ACGUUGUUCUUUUCCAUCAAUGGUACAAGCCUGUUAUAUUUCUUUACAAC [50-bp dsRNA]", "values": [{"measurement": "IC50", "setting": "[11]", "result": 17, "unit": "nM"}, {"measurement": "Kd", "setting": "[8]", "result": 22, "unit": "nM"}]}
{"molecule": "B1", "values": [{"measurement": "Kd", "setting": "[12]", "result": "290 ± 60", "unit": "nM"}]}
{"molecule": "B2", "values": [{"measurement": "Kd", "setting": "[13]", "result": "2100 ± 600", "unit": "nM"}]}
{"molecule": "B3", "values": [{"measurement": "Kd", "setting": "[14]", "result": "91 ± 11", "unit": "nM"}]}
{"molecule": "B4", "values": [{"measurement": "Kd", "setting": "[12]; blunt", "result": "36 ± 22", "unit": "nM"}]}
{"molecule": "B5", "values": [{"measurement": "Kd", "setting": "[14]; blunt", "result": "80 ± 15", "unit": "nM"}]}
{"molecule": "B6", "values": [{"measurement": "Kd", "setting": "[12]; blunt", "result": "110 ± 20", "unit": "nM"}]}
{"molecule": "B7", "values": [{"measurement": "Kd", "setting": "[12]", "result": "220 ± 90", "unit": "nM"}]}
{"molecule": "B8", "values": [{"measurement": "Kd", "setting": "[14]; blunt", "result": "22 ± 8", "unit": "nM"}]}
{"molecule": "B9", "values": [{"measurement": "binding result", "setting": "[13]", "result": "no binding"}]}
